{
  "source": "paper PMC5736716",
  "about": "“A hydrophobic anchor mechanism defines a deacetylase family that suppresses host response against YopJ effectors” (Nature Communications, 2017)",
  "molecules": {"B1": {"name": "AtSOBER1 (Arabidopsis thaliana) (protein)", "chain": "MARTFILWLHGLGDSGPANEPIQTQFKSSELSNASWLFPSAPFNPVTCNNGAVMRSWFDVPELPFKVGSPIDESSVLEAVKNVHAIIDQEIAEGTNPENVFICGLSQGGALTLASVLLYPKTLGGGAVLSGWVPFTSSIISQFPEEAKKTPILWSHGTDDRMVLFEAGQAALPFLKEAGVTCEFKAYPGLGHSISNKELKYIESWIKRRLKGSSSTCLQLNCLKEMFH"}, "B2": {"name": "AtTIPSY1 (Arabidopsis thaliana) (protein)", "chain": "MRTSRLKKPIVLLTIALLSSVFFFAFFFLNKSDVSSTSALRNRDSMARTFILWLHGLGDSGPANEPIKTLFRSQEFRNTKWLFPSAPPNPVSCNYGAVMPSWFDIPELPLTAGSPKDESSLLKAVKNVHAIIDKEIAGGINPENVYICGFSQGGALTLASVLLYPKTIGGGAVFSGWIPFNSSITNQFTEDAKKTPILWSHGIDDKTVLFEAGQAALPFLQQAGVTCEFKAYPGLGHSISNEELQYLESWLKQRMQSSSSSS"}},
  "key": {"[1]": {"molecular_target": "HA:AvrBsT (Xanthomonas euvesicatoria, UniProt A0ABS8LK00)", "format": "biochemical"}, "[2]": {"molecular_target": "T1, AtTIPSY1 (Arabidopsis thaliana, UniProt Q8GYK2)", "T1 sequence (Q8GYK2 1-262)": "B2 chain", "test": "colorimetric p-nitrophenol release at […] nm", "format": "biochemical", "settings": "20 mM HEPES, 150 mM NaCl, pH 7.52-7.55, 0.01% Triton X-100, room temperature"}, "[3]": {"tested_on": "CC(=O)Oc1ccc([N+](=O)[O-])cc1", "test": "purified protein", "settings": "20 mM HEPES, 150 mM NaCl, pH 7.52-7.55, 0.01% Triton X-100, room temperature; pH 7.0"}, "[4]": {"tested_on": "CCCC(=O)Oc1ccc([N+](=O)[O-])cc1", "test": "purified protein", "settings": "20 mM HEPES, 150 mM NaCl, pH 7.52-7.55, 0.01% Triton X-100, room temperature; pH 7.0"}, "[5]": {"tested_on": "CCCCC(=O)Oc1ccc([N+](=O)[O-])cc1", "test": "purified protein", "settings": "20 mM HEPES, 150 mM NaCl, pH 7.52-7.55, 0.01% Triton X-100, room temperature; pH 7.0"}, "[6]": {"substrate": "CC(=O)Oc1ccc([N+](=O)[O-])cc1", "test": "purified protein", "settings": "20 mM HEPES, 150 mM NaCl, pH 7.52-7.55, 0.01% Triton X-100, room temperature; pH 7.0", "remark": "listed apart in the source"}, "[7]": {"substrate": "CCCCC(=O)Oc1ccc([N+](=O)[O-])cc1", "test": "purified protein", "settings": "20 mM HEPES, 150 mM NaCl, pH 7.52-7.55, 0.01% Triton X-100, room temperature; pH 7.0", "remark": "listed apart in the source"}, "[8]": {"substrate": "CCCC(=O)Oc1ccc([N+](=O)[O-])cc1", "test": "purified protein", "settings": "20 mM HEPES, 150 mM NaCl, pH 7.52-7.55, 0.01% Triton X-100, room temperature; pH 7.0", "remark": "listed apart in the source"}},
  "data": [
    {"molecule": "CC(=O)SCCNC(=O)CCNC(=O)[C@H](O)C(C)(C)COP(=O)(O)OP(=O)(O)OC[C@H]1O[C@@H](n2cnc3c(N)ncnc32)[C@H](O)[C@@H]1OP(=O)(O)O", "note": "[[Acetyl-1-^14C]-Acetyl Coenzyme A]", "values": [
      {"measurement": "autoradiography of auto-acetylation on anti-HA beads", "setting": "[1]", "value": "led to auto-acetylation of the wild type protein, but not the enzymatically inactive mutant"}
    ]},
    {"molecule": "CCCCCC(=O)Oc1ccc([N+](=O)[O-])cc1", "note": "[pNP hexanoate]", "values": [
      {"measurement": "Michaelis-Menten parameters", "setting": "[2]", "value": "allowed the protein to hydrolyze para-nitrophenyl hexanoate, like AtTIPSY1 is able to"}
    ]},
    {"molecule": "AtSOBER1 (Arabidopsis thaliana; F65L)", "values": [
      {"measurement": "Km", "setting": "[3]", "value": "3.12 ± 0.44 × 10^-4 M"},
      {"measurement": "kcat", "setting": "[3]", "value": "1.88 ± 0.23 × 10^2 s-1"},
      {"measurement": "Km", "setting": "[4]", "value": "4.80 ± 0.23 × 10^-5 M"},
      {"measurement": "kcat", "setting": "[4]", "value": "1.10 ± 0.18 × 10^1 s-1"}
    ]},
    {"molecule": "AtSOBER1 (Arabidopsis thaliana; L63A)", "values": [
      {"measurement": "Km", "setting": "[3]", "value": 6, "unit": "mM"},
      {"measurement": "Km", "setting": "[4]", "value": 30, "unit": "µM"},
      {"measurement": "Km", "setting": "[5]", "value": 4, "unit": "µM"}
    ]},
    {"molecule": "AtTIPSY1 (Arabidopsis thaliana; L110F)", "values": [
      {"measurement": "Km", "setting": "[3]", "value": "1.75 ± 0.33 × 10^-3 M"},
      {"measurement": "kcat", "setting": "[3]", "value": "4.82 ± 0.32 × 10^2 s-1"}
    ]},
    {"molecule": "B1", "values": [
      {"measurement": "Km", "setting": "[6]", "value": 158, "unit": "µM"},
      {"measurement": "Km", "setting": "[7]", "value": 327, "unit": "µM"},
      {"measurement": "Km", "setting": "[8]", "value": 227, "unit": "µM"}
    ]},
    {"molecule": "B2", "values": [
      {"measurement": "Km", "setting": "[6]", "value": "1.75 ± 0.18 × 10^-3 M"},
      {"measurement": "Km", "setting": "[7]", "value": "3.07 ± 0.29 × 10^-4 M"},
      {"measurement": "kcat", "setting": "[7]", "value": "6.46 ± 0.39 × 10^1 s-1"},
      {"measurement": "Km", "setting": "[8]", "value": "5.03 ± 0.41 × 10^-4 M"}
    ]}
  ]
}
